Data from ChEMBL document CHEMBL1122375, “Synthesis and biological evaluation of 2-fluoro-8-azaadenosine and related compounds” (J Med Chem, 1983).

Legend:
[1] = substrate: COC[C@H]1O[C@@H](n2cnc3c(O)nc(N)nc32)[C@H](OC)[C@@H]1OC; assay: (§1) Kinetic parameter in calf intestine adenosine deaminase.
[2] = substrate: COC[C@H]1O[C@@H](n2nnc3c(O)nc(N)nc32)[C@H](OC)[C@@H]1OC; assay: as §1
[3] = substrate: COc1ncnc2c1ncn2[C@@H]1O[C@H](CO)[C@@H](O)[C@@H]1O; assay: as §1
[4] = substrate: COc1ncnc2c1nnn2[C@@H]1O[C@H](CO)[C@@H](O)[C@H]1O; assay: as §1
[5] = substrate: Nc1nc(F)nc2c1ncn2[C@@H]1O[C@H](CO)[C@@H](O)[C@H]1O; assay: as §1
[6] = substrate: Nc1nc(F)nc2c1nnn2C1O[C@H](CO)[C@@H](O)[C@H]1O; assay: as §1
[7] = substrate: Nc1nc(N)c2ncn([C@@H]3O[C@H](CO)[C@@H](O)[C@H]3O)c2n1; assay: as §1
[8] = substrate: Nc1ncnc2c1nnn2[C@@H]1O[C@H](CO)[C@@H](O)[C@H]1O; assay: as §1
[9] = substrate: Nc1ncnc2c1nnn2[C@H]1C[C@H](O)[C@@H](CO)O1; assay: as §1

B1: Adenosine deaminase (Bos taurus), P56658 (protein)
chain: MAQTPAFNKPKVELHVHLDGAIKPETILYYGRKRGIALPADTPEELQNIIGMDKPLSLPEFLAKFDYYMPAIAGCREAVKRIAYEFVEMKAKDGVVYVEVRYSPHLLANSKVEPIPWNQAEGDLTPDEVVSLVNQGLQEGERDFGVKVRSILCCMRHQPSWSSEVVELCKKYREQTVVAIDLAGDETIEGSSLFPGHVKAYAEAVKSGVHRTVHAGEVGSANVVKEAVDTLKTERLGHGYHTLEDATLYNRLRQENMHFEVCPWSSYLTGAWKPDTEHPVVRFKNDQVNYSLNTDDPLIFKSTLDTDYQMTKNEMGFTEEEFKRLNINAAKSSFLPEDEKKELLDLLYKAYGMPSPASAEQCL
B1 was tested. Which Km [1] did it give?
The Km was 42 µM.

What about the Km [2] of the same protein?
Its Km is 22 µM.

And the Km [3]?
Its Km is 50 µM.

And the Km [4]?
Its Km is 140 µM.

And the Km [5]?
Its Km is 81 µM.

What about the Km [6] of the same protein?
The Km was 250 µM.

And the Km [7]?
Its Km is 33 µM.

And the Km [8]?
The Km was 250 µM.

And the Km [9]?
Its Km is 220 µM.
